Assay results taken from patent US6525022B1, “Receptor specific atrial natriuretic peptides” (Genentech, Inc., priority 1993, dated 2003).
Where two headings read alike, the source gives them in different places. Bridges are numbered along the chain shown (N, C = ends). Where no end group is shown, it is not given here. [ ]: non-standard residue; d: D form. Mpa = O=C(O)CCS

T1: human neutral endopeptidase 24.11 (human), P08473
T1 chain: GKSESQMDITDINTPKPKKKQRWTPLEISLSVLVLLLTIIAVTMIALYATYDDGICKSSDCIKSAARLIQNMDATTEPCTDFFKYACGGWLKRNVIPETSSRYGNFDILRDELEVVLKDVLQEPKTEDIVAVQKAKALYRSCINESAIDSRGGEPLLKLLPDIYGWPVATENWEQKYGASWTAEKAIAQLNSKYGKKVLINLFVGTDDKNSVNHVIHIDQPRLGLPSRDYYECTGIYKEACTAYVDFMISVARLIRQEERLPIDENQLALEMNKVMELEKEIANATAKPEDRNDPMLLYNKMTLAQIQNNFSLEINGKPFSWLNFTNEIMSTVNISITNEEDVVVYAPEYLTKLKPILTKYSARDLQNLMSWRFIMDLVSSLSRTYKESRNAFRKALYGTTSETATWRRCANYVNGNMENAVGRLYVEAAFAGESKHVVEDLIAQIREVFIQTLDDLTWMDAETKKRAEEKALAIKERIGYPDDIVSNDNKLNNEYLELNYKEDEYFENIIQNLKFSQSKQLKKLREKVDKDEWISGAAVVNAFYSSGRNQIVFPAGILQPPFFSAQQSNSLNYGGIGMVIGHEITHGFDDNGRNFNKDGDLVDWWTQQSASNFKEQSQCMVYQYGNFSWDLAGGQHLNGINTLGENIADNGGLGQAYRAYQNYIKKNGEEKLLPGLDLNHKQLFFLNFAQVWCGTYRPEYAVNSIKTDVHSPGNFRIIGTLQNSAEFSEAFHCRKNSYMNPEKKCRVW

T2: human natriuretic peptide clearance receptor-C (human), P17342
T2 chain: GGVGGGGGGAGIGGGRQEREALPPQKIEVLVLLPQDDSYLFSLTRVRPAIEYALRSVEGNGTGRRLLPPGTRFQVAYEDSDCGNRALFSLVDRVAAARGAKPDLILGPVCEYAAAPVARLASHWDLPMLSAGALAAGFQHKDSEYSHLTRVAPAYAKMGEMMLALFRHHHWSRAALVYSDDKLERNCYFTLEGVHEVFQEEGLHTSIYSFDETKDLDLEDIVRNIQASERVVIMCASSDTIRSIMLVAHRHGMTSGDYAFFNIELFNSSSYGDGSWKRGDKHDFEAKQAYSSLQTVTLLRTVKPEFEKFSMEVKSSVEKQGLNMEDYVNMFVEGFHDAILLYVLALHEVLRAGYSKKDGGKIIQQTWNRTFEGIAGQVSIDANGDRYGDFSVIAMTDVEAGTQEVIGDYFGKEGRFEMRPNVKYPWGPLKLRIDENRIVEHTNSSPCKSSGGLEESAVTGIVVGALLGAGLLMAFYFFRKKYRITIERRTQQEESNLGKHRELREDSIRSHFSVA

T3: human natriuretic peptide clearance receptor-C (human, UniProt P17342 27-541)
T3 construct: whole, on cells; also called hNPR-C; human NPR-C
T3 sequence (looked up): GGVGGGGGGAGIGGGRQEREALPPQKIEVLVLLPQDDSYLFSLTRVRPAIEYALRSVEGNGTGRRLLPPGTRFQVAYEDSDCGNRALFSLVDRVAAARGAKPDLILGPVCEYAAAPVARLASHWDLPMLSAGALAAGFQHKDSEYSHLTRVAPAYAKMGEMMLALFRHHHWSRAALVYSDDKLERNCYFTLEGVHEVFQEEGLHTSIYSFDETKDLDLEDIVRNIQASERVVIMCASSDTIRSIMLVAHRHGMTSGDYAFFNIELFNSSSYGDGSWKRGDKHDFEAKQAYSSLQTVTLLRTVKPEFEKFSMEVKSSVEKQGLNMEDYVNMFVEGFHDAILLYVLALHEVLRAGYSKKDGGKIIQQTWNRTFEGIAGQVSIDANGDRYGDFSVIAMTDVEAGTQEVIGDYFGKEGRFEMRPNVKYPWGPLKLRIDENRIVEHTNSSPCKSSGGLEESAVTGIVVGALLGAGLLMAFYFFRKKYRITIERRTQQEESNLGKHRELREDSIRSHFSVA

T4: human natriuretic peptide receptor-A (human, UniProt P16066 33-1061)
T4 construct: whole, on cells; also called hNPR-A; human NPR-A
T4 sequence (looked up): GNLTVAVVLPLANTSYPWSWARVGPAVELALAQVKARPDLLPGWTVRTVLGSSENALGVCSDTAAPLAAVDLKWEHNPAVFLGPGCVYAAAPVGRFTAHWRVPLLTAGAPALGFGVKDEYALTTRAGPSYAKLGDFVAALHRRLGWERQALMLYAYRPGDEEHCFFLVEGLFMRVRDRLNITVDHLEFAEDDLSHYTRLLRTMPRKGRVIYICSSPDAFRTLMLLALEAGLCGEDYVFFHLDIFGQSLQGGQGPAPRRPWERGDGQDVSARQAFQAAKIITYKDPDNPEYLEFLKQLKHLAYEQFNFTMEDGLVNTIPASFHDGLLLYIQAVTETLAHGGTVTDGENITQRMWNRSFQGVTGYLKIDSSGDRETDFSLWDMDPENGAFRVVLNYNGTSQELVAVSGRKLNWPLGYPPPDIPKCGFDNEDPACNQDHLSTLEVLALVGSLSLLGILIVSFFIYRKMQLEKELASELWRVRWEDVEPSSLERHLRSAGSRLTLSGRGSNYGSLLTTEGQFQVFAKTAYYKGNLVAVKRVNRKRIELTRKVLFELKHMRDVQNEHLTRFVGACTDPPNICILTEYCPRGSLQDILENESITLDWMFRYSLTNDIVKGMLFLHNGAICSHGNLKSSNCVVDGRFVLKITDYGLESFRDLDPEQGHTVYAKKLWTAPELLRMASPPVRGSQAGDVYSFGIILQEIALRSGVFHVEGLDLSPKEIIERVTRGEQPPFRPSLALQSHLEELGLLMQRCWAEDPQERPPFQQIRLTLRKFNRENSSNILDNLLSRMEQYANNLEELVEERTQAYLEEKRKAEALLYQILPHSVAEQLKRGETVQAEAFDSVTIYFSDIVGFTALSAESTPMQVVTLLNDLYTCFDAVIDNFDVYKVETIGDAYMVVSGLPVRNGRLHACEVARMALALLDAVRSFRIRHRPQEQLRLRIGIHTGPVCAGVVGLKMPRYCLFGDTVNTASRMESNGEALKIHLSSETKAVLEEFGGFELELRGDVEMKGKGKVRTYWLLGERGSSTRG

T5: human natriuretic peptide receptor-A (human), P16066
T5 chain: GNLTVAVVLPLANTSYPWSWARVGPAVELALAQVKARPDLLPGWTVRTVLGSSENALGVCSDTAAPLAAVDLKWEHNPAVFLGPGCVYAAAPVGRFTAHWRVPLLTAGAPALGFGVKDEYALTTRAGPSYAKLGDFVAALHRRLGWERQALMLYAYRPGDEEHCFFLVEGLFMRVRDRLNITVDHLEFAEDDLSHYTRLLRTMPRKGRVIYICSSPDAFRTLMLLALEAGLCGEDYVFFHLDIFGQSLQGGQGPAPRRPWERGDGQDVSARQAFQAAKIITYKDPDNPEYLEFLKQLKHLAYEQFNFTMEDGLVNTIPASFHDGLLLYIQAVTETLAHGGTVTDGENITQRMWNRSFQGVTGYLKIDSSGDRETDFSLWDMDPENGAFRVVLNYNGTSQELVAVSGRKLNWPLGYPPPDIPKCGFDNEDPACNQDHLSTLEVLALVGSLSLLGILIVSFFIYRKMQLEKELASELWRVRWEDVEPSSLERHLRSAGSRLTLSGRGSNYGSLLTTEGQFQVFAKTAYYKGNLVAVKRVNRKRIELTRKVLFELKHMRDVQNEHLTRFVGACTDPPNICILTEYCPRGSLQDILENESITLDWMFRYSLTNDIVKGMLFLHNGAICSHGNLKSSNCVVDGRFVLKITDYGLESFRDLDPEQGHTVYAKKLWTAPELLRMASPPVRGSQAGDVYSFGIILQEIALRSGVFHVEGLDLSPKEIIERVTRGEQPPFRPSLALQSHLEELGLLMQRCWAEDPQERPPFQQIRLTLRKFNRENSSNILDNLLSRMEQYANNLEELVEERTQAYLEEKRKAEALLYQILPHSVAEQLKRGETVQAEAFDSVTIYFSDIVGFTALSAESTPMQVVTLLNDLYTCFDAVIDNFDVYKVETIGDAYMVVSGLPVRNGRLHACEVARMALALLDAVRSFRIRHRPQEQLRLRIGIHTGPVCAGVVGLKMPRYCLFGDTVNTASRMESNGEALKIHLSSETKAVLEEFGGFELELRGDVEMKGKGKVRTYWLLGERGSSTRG


Key:
[1] = target: T1, human neutral endopeptidase 24.11 …; assay: cell-based or functional assay
[2] = target: T2, human natriuretic peptide clearance …; assay: competition binding, Table I; tracer and receptor format not given
[3] = target: T6, human neutral endopeptidase 24.11 (human, UniProt P08473 2-750, limits assumed); assay: cell-based or functional assay
[4] = target: T3, human natriuretic peptide clearance …; assay: competition binding, Table I; tracer and receptor format not given
[5] = target: T6, human neutral endopeptidase 24.11; assay: cell-based or functional assay; remark: listed apart in the source
[6] = target: T4, human natriuretic peptide receptor-A; assay: competition binding, Table I; tracer and receptor format not given
[7] = target: T5, human natriuretic peptide receptor-A …; assay: as above

Binder	Half-Life [3]	IC50 [4]	IC50 [6]	also measured
SLRRSSCFTGSIDRIRAQSGLGCNSFRY (modifications not checked) [ANF 27]	–	–	–	Half-Life [1]: 5.57 h; IC50 [2]: 1000 nM
SLRRSSCFGGRIDRIRAQSGLGCNSFRY (disulfide 7-23, Synthetic; Cys7-Cys23 disulfide; also called hANF(1-28) M12I, G16R) [ANF 24]	10 h	5.64 nM	–	–
SLRRSSCFGGRIDSIRAQSGLGCNSFRY (disulfide 7-23, also called hANF(1-28) M12I, R14S, G16R) [ANF 25]	–	3.31 nM	0.056 nM	Half-Life [5]: 3.32 h
SLRRSSCFTGSMDRIGAQSGLGCNSFRY (disulfide 7-23, Cys7-Cys23 disulfide; also called hANF(1-28) G9T, R11S) [ANF 50]	1.55 h	251 nM	0.57 nM	–
SLRRSSCF[dA]GDIDRIRAQSGLGCNSFRY (disulfide 7-23, Cys7-Cys23 disulfide; also called hANF(1-28) G9(d-Ala), R11D, M12I, G16R) [ANF 90]	–	6140 nM	1.2 nM	–
[Mpa]F[dA]GSIDRIRAQSGLGCNSFRY (disulfide 1-17; not fully specified; printed as Mpa-Phe-(D-Ala)-Gly-Ser-Ile-Asp-Arg-Ile-Arg-Ala-Gln-Ser-Gly-Leu-Gly-Cys-Asn-Ser-Phe-Arg-Tyr) [ANF 81]	–	3860 nM	1.4 nM	–
SLRRSSCFGKSMDRIGAQSGLGCNSFRY (modifications not checked) [ANF 60]	–	–	–	Half-Life [1]: 5.07 h; IC50 [2]: 5.98 nM; IC50 [7]: 0.112 nM
SLRRSSCFAGSIDRIRAQSGLGCNSFRY (modifications not checked) [ANF 78]	–	–	–	IC50 [2]: 8.64 nM
TAPRSLRRSSCFTGSIDRIRAQSGLGCNSFRY (modifications not checked) [ANF 76]	–	–	–	Half-Life [1]: 23.5 h; IC50 [7]: 0.0089 nM
TAPRSLRRSSCFGGRIDRIRAQSGLGCNSFRY (disulfide 11-27) [ANF 23]	12.3 h	–	–	–
TAPRSLRRSSCFGGRMDRIGAQSGLGCNSFRY [urodilatin]	31 h	–	–	Half-Life [5]: 27.1 h
